Measurements as given in patent publication US20120045773A1, “CELL ADHESION INHIBITOR AND APPLICATIONS THEREOF” (University of Miyazaki, priority 2009, published 2012).

Assays:
AML1 cell line [1] = assay: Drug resistance assay by WST method with or without osteoblast cell in the medium; assay type: cell-based, human
Method: Effect of the presence of osteoblast cell on the drug resistance of AML1 cell line derived from human acute myelocytic leukemia (AML) was examined.
Specifically, by WST method, in which water-soluble formazan was produced, viability of AML1 cell line was evaluated under the presence of VP16 (5 μM), a kind of etoposide-based anticancer drug, between the cases of presence and absence of osteoblast cell in culture medium. It should be noted that AML1 cell line is fixed to medium plate through osteoblast cell when the osteoblast cell exists in the medium.
In addition, effect of the presence of the osteoblast cell on the drug resistance of AML1 cell line was examined, when Ara-C, a kind of anticancer drug of […] was used in place of VP16 as the anticancer drug. Specifically, the drug resistance assay was carried out by WST method using the same procedures as the above-mentioned method excepting that Ara-C (1 μg/mL) was used in place of VP16 as the anticancer drug.
Drug resistance assay by WST method was carried out by the same procedures as the above-mentioned Reference Example 5 (in the presence of Ara-C) using each of the above-established AML1 (shEVI1) cell and AML1 (shLuc) cell in place of AML1 cell line.

ITGB4 gene = ITGB4 gene expression by PCR in AML1 cell line transfected with shITGB4; assay type: cell-based, human; settings: AML1(shITGB4) compared with AML1(shLuc); FIG. 9
From the text: ITGB4 expression-inhibited AML1 cell line (hereinafter also called “AML1(shITGB4)”) was established by the transfection of shRNA having an activity of cleaving mRNA of ITGB4 gene (hereinafter also called “shITGB4”) into AML1 cell line by the same method as the above-mentioned Example 2-1. It should be noted that the base sequences of the used shITGB4 were as follows.
Further, expression of ITGB4 gene in AML1 (shITGB4) was confirmed by the same method as the above-mentioned Example 1-1. As a result, as shown in the results of PCR agarose gel electrophoresis in FIG. 9, expression of ITGB4 gene was suppressed in AML1(shITGB4) compared with AML1(shLuc).

AML1 cell line [2] = assay: Cellular adhesiveness assay of AML1 cell line on matrigel-coated 96-well plate (Cell counting kit 8); assay type: cell-based, human; settings: AML1(shITGB4) relative to AML1(shLuc); FIG. 8
Method: Cellular adhesiveness was evaluated for the above-established AML1(shEVI1) (triplicate) and AML1(shLuc).
(§1) Specifically, 100 μL of 40 times-diluted growth factor reduced matrigel (produced by BD Biosciences) with RPMI1640/10% FCS was added to each well of a 96-well plate, incubated at 4° C. for 6 hours, and washed twice with PBS. The above-mentioned cell was added to each of the wells at 10000 cells/100 μL. After that, the cell was incubated at 37° C. for 2 hours and washed three times with PBS. After that, 90 μL of RPMI1640/10% FCS and 10 μL of Cell counting kit 8 (produced by DOJINDO Laboratories) were added to each well, incubated at 37° C. for 30 minutes and measured at wavelength of 450 nm by a spectrophotometer.
Cellular adhesiveness was evaluated for the established above-mentioned AML1(shITGB4) and AML1(shLuc) by the same method as the above-mentioned Example 1-2.

[3] = system: various integrin families including ITGA6 gene and ITGB4 gene; assay: Expression of integrin family and VE cadherin genes by PCR and agarose gel electrophoresis in AML1 cells transduced with shEVI1; assay type: cell-based, human
From the text: (§2) EVI1 expression-inhibited AML1 cell line (hereinafter, also called “AML1 (shEVI1)”) was established by the transfection of shEVI1, which is a short hairpin RNA (shRNA) having cleavage activity of mRNA of EVI1 gene, into the AML1 cell line, which was originated from human acute myelocytic leukemia (AML).
Specifically, at first, shEVI1 (sense strand: […] UUG (SEQ ID No: 7) and antisense strand: […] GAGA (SEQ ID No: 8), which had been disclosed in Oncogene, 2006 Jun. 15; 25 (25): 3565-75), were inserted into pSIREN-RetroQ-ZsGreen vector of RNAi-Ready pSIREN-RetroQ-ZsGreen (produced by Clonetech Laboratories, Inc.) at BamH1-EcoR1 site to prepare a shEVI1 retrovector. After that, 10 μg of the shEVI1 retrovector and 10 μg of p10A1 packaging vector (produced by Clonetech Laboratories, Inc.) were transduced to 293T cell using Hylimax liposome reagent (produced by DOJINDO Laboratories) to prepare a retrovirus containing shEVI1. After that, AML1 (shEVI1) was established by infecting the obtained retrovirus into 10^5 of AML1 cells. It should be noted that as a control cell, the cell (hereinafter, also called “AML1 (shLuc)”) was established by transfecting a control vector (shLuc) attached to RNAi-Ready pSIREN-RetroQ-ZsGreen (produced by Clonetech Laboratories, Inc.) by the same method.
Each cell cultured steadily of the established above mentioned AML1(shEVI1) and AML1(shLuc) was recovered by centrifugation, the medium was removed, and 1 ml of Trizol™ (produced by Invitrogen Corp.) was added. After that, 500 μL of chloroform was added, separated by centrifugation at 15000 rpm for 15 minutes, the upper layer was transferred to another tube, 500 μL of 2-propanol was added, separated by centrifugation at 15000 rpm for 10 minutes, and washed with 80% ethanol. The resultant RNA was dissolved in RNase-free water, the amount of RNA was measured by spectrophotometer at wavelength of 260 nm, and 1 μg of the RNA was transformed to cDNA with reverse transcriptase (superscript 3, produced by Invitrogen Corp.).
Using each of the resultant cDNA as a template, the cDNA was amplified by PCR method, and expression level of the genes was confirmed by agarose gel electrophoresis. Specifically, TaKaRa Extaq (produced by TaKaRaBio Inc.) was used as the polymerase, and PCR Thermal Cycler DICE (produced by TaKaRa Bio Inc.) was used as the PCR equipment. In addition, each cDNA was corrected by β-actin before the amplification by PCR. Base sequences of the primers used in the PCR were as follows;
The ones disclosed in Journal of Biomedical Science (2005)12:803-813.

HNT34 cell line [4] = assay: Cellular proliferative ability assay of HNT34 cell line (Cell counting kit 8); assay type: cell-based, human; settings: HNT34(shEVI1) vs HNT34(shLuc) control cell line; FIG. 7
Method: Cellular proliferative ability was evaluated for the above-mentioned established HNT34(shEVI1) and HNT34(shLuc).
Specifically, cells diluted with RPMI1640/10% FCS were added to each well of a 96-well plate at 1000 cells/100 μL. After that, the cell suspension was incubated at 37° C. for an appropriate time, each 10 μL of Cell counting kit 8 (produced by DOJINDO Laboratories) was added, incubated at 37° C. for 30 minutes, and measurement was carried out at wavelength of 450 nm using a spectrophotometer.

EVI1 gene [5] = assay: EVI1 gene expression by PCR in HNT34 cell line transfected with shEVI1; assay type: cell-based, human; settings: HNT34(shEVI1) vs HNT34(shLuc); transfection with Nucleofector; FIG. 5
From the text: (§3) EVI1 expression-inhibited HNT34 cell line (hereinafter, also called “HNT34(shEVI1)”) was established by the transfection of shEVI1, which was used in the above-mentioned Example 1-1, using Nucleofector (produced by Amaxa Biosystems), a gene transfection system, into HNT34 cell line derived from human. In the same way, the cell line transfected with shLuc (hereinafter, also called “HNT34 (shLuc)”) was established. For these cell lines, expression of EVI1 gene and genes of various integrin families were confirmed by the same method as in the Example 1.

[6] = system: genes of various integrin families; assay: Expression of integrin family genes by PCR in HNT34 cell line transfected with shEVI1; assay type: cell-based, human; settings: HNT34(shEVI1) vs HNT34(shLuc); transfection with Nucleofector; FIG. 5
From the text: as §3

EVI1 gene [7] = assay: EVI1 gene expression by PCR and agarose gel electrophoresis in AML1 cells transduced with shEVI1; assay type: cell-based, human
From the text: as §2
Specifically, at first, shEVI1 (sense strand: […] UUG (SEQ ID No: 7) and antisense strand: […] GAGA (SEQ ID No: 8), which had been disclosed in Oncogene, 2006 Jun. 15; 25 (25): 3565-75), were inserted into pSIREN-RetroQ-ZsGreen vector of RNAi-Ready pSIREN-RetroQ-ZsGreen (produced by Clonetech Laboratories, Inc.) at BamH1-EcoR1 site to prepare a shEVI1 retrovector. […] It should be noted that as a control cell, the cell (hereinafter, also called “AML1 (shLuc)”) was established by transfecting a control vector (shLuc) attached to RNAi-Ready pSIREN-RetroQ-ZsGreen (produced by Clonetech Laboratories, Inc.) by the same method.
Each cell cultured steadily of the established above mentioned AML1(shEVI1) and AML1(shLuc) was recovered by centrifugation, the medium was removed, and 1 ml of Trizol™ (produced by Invitrogen Corp.) was added. […] The resultant RNA was dissolved in RNase-free water, the amount of RNA was measured by spectrophotometer at wavelength of 260 nm, and 1 μg of the RNA was transformed to cDNA with reverse transcriptase (superscript 3, produced by Invitrogen Corp.). […]

HNT34 cell line [8] = assay: Cellular adhesiveness assay of HNT34 cell line; assay type: cell-based, human; settings: HNT34(shEVI1) compared with HNT34(shLuc); FIG. 6
Method: as §1
The cellular adhesiveness was evaluated for the above-mentioned established HNT34(shEVI1) and HNT34(shLuc) by the same method as the above-mentioned Example 1-2.

AML1 cell = assay: Accumulation of AML1 cells in thighbone bone marrow of transplanted NOG mouse (FACS); assay type: in vivo; settings: 6 million AML1(shEVI1) cells injected into NOG mouse, bone marrow recovered 1 month after, control AML1(shLuc) printed as (330), FIG. 25
Method: The above-established AML1(shEVI1) cell was transplanted into NOG Mouse™, and accumulation of the AML1(shEVI1) cell into the murine thighbone was examined after the transplantation. Here, NOG mouse is a severe immunodeficient mouse suitable for the preparation of humanized model mouse that is available from the Central Institute for Experimental Animals.
Specifically, 6 million of each of the AML1 (shLuc) cell and the AML1 (shEVI1) cell was injected into NOG mouse through venous artery, and bone marrow of the thighbone was recovered 1 month after. After that, a graph representing the fluorescence intensity in the horizontal axis was prepared by FACS, and analysis was made how frequently cells were distributed from low intensity (peak near to 0) to high fluorescence intensity.

[9] = AML1(shEVI1) compared with AML1(shLuc), FIG. 1
[10] = triplicated experiment for AML1(shEVI1), AML1 cell not administered with shLuc or shEVI1 added as a control, FIG. 2

Nc1ccn([C@@H]2O[C@H](CO)[C@@H](O)[C@@H]2O)c(=O)n1 [Ara-C]
viability of AML1 cell line in the presence of the drug, osteoblast cell in the medium compared with none (AML1 cell line [1]; Ara-C (1 μg/mL), FIG. 19): increase significantly

COc1cc([C@@H]2c3cc4c(cc3[C@@H](O[C@@H]3O[C@@H]5CO[C@@H](C)O[C@H]5[C@H](O)[C@H]3O)[C@H]3COC(=O)[C@H]23)OCO4)cc(OC)c1O [VP16]
viability of AML1 cell line in the presence of the drug, osteoblast cell in the medium compared with none (AML1 cell line [1]; VP16 (5 μM), FIG. 18): increase significantly

B1: shITGB4: shRNA having an activity of cleaving mRNA of ITGB4 gene; SEQ ID No: 13 and SEQ ID No: 14 (nucleic acid)
chain 1: GAUCUCCGAGUUGCGUGGGGUGUGUCUUCAAGAGAGACACACUCCGUGCAGCUCUUUUUG
chain 2: AAUUCAAAAAGAGCUGCACGGAGUGUGUCUCUCUUGAAGACACACCCCACGCAACUCGGA
expression of ITGB4 gene (ITGB4 gene): suppressed | cellular adhesiveness (ratio of the number of adhered cells to the number of total cells) (AML1 cell line [2]): decrease nearly to zero

B2: shEVI1: short hairpin RNA (shRNA) having cleavage activity of mRNA of EVI1 gene; SEQ ID No: 7 and SEQ ID No: 8 (nucleic acid)
chain 1: GAUCUCUCUAAGGCUGAACUAGCAGUUCAAGAGACUGCUAGUUCAGCCUUAGAUUUUUUG
chain 2: AAUUCAAAAAAUCUAAGGCUGAACUAGCAGUCUCUUGAACUGCUAGUUCAGCCUUAGAGA
drug resistance to Ara-C gained by the existence of osteoblast (AML1 cell line [1]; AML1(shEVI1) vs AML1(shLuc), in the presence of Ara-C, FIG. 20): disappeared | expression of VE cadoherin gene [3, 9]: inhibited | gene expressions of various integrin families including ITGA6 gene and ITGB4 gene [3, 9]: inhibition | expression of VE cadherin genes [3, 10]: inhibition | expression of various integrin families [3, 10]: inhibition | cellular proliferation ability (HNT34 cell line [4]): no significant difference | expression of the EVI1 gene (EVI1 gene [5]): inhibited | expression of genes of various integrin families [6]: inhibited | EVI1 gene expression (EVI1 gene [7]; [9]): inhibited | EVI1 gene expression (EVI1 gene [7]; [10]): inhibition | decrease of cellular adhesiveness (ratio of the number of adhered cells to the number of total cells) (HNT34 cell line [8]): about 76% | abundance rate of transplanted cells in bone marrow of the thighbone (AML1 cell): 9.5%
